Test results taken from patent EP3636665A1 (dated 2020).

Tests used:
[1] = target: T1, MAGE-A1 and a second family member (printed 'MRGE-A1/R4') peptide on HLA-DPB1*04:01 (human); assay: cytokine release
T1 peptide: QDLVQEKYLEY

[2] = target: T2, MAGE-A3 peptide on HLA-DPB1*04:01 (human); assay: cytokine release
T2 peptide: KKLLTQHFVQENY

B1: 6F9 TCR (TCR, V domains shown)
Valpha: AQTVTQSQPEMSVQEAETVTLSCTYDTSESDYYLFWYKQPPSRQMILVIRQEAYKQQNATENRFSVNFQKAAKSFSLKISDSQLGDAAMYFCALRSSGTYKYIFGTGTRLKVLA
Vbeta: GAGVSQSPSNKVTEKGKDVELRCDPISGHTALYWYRQSLGQGLEFLIYFQGNSAPDKSGLPSDRFSAERTGGSVSTLTIQRTQQEDSAVYLCASIRTGPFFSGNTIYFGEGSWLTVV
binding result [1]: no recognition
binding result [2]: no recognition
